Results taken from the DeepSol protein solubility set.

Experiment: soluble on expression in E. coli; label from the status in PepcDB or PDB records

Sequence	soluble on expression in E. coli
MAEDEPDAKSPKTGGRAPPGGAEAGEPTTLLQRLRGTISKAVQNKVEGILQDVQKFSDNDKLYLYLQLPSGPTTGDKSSEPSTLSNEEYMYAYRWIRNHLEEHTDTCLPKQSVYDAYRKYCESLACCRPLSTANFGKIIREIFPDIKARRLGGRGQSKYCYSGIRRKTLVSMPPLPGLDLKGSESPEMGPEVTPAPRDELVEAACALTCDWAERILKRSFSSIVEVARFLLQQHLISARSAHAHVLKAMGLAEEDEHAPRERSSKPKNGLENPEGGAHKKPERLAQPPKDLEARTGAGPLARGERKKSVVESSAPGANNLQVNALVARLPLLLPRAPRSLIPPIPVSPPILAPRLSSGALKVATLPLSSRAGAPPAAVPIINMILPTVPALPGPGPGPGRAPPGGLTQPRGTENREVGIGGDQGPHDKGVKRTAEVPVSEASGQAPPAKAAKQDIEDTASDAKRKRGRPRKKSGGSGERNSTPLKSAAAMESAQSSRLPWETWGSGGEGNSAGGAERPGPMGEAEKGAVLAQGQGDGTVSKGGRGPGSQHTKEAEDKIPLVPSKVSVIKGSRSQKEAFPLAKGEVDTAPQGNKDLKEHVLQSSLSQEHKDPKATPP	soluble
MAEDIEEILAEIDGSQIEEYQKFFDAFDRGKQGYIMATQIGQIMHGMEQDFDEKTLRKLIRKFDADGSGKLEFDEFCALVYTVANTVDKETLEKELREAFRLFDKEGNGYISRPTLKALLKEIADDLTDQQLEEAVDEIDEDGSGKIEFEEFWELMAGESD	not soluble
MAEEQARHVKNGLECIRALKAEPIGSLAIEEAMAAWSEISDNPGQERATCREEKAGSSGLSKPCLSAIGSTEGGAPRIRGQGPGESDDDAETLGIPPRNLQASSTGLQCHYVYDHSGEAVKGIQDADSIMVQSGLDGDSTLSGGDNESENSDVDIGEPDTEGYAITDRGSAPISMGFRASDVETAEGGEIHELLRLQSRGNNFPKLGKTLNVPPPPDPGRASTSGTPIKKGTDARLASFGTEIASSLTGGATQCARKSPSEPSGPGAPAGNVPECVSNAALIQEWTPESGTTISPRSQNNEEGGDHYDDELFSDVQDIKTALAKIHEDNQKIISKLESLLLLKGEVESIKKQINRQNISISTLEGHLSSIMIAIPGLGKDPNDPTADVEINPDLKPIIGRDSGRALAEVLKKPVASRQLQGMTNGRTSSRGQLLKEFQLKPIGKKMSSAVGFVPDTGPASRSVIRSIIKSSRLEEDRKRYLMTLLDDIKGANDLAKFHQMLVKIIMK	soluble
MAEEQQNSDQSNGGNVIPTPEEVATFLHKTVEEGGWEKCWEEEITPWDQGRATPLIVHLVDTSSLPLGRALVPGCGGGHDVVAMASPERFVVGLDISESALAKANETYGSSPKAEYFSFVKEDVFTWRPTELFDLIFDYVFFCAIEPEMRPAWAKSMYELLKPDGELITLMYPITDHVGGPPYKVDVSTFEEVLVPIGFKAVSVEENPHAIPTRKGKEKLGRWKKINLEHHHHHH	soluble
MAEHDITPEVTISKTQRRYKVGYVRARHQDRKTGIARYYSQHPSLHLKGDWLKEAGFDTGRGVTVKISEGGLTIIADSDEVQELRDGMFSVLNES	not soluble
MAEKSLITQETVGMTDEGLPPVLQGRNNSTQQVSFLRARVKCTDQGLITKIGVLPRGAFIKSIKIYAMTDFEDVTATFGKEPHGNDYGDVGLTQSTDSNVYIPMEERDVPLEVENTIYMTRDKKSSKGDVEVIVEFYTNR	not soluble
MAELSNCSKCGRLFVKLSTRDVCESCYQEEERQFERVYAFLRKRENRTATMAQVVEATGVEEKLIIKWIRAGRLQLVHFPNLGYPCDSCGAMIREGRLCAKCLGQLQADLRRAEGKKEKEARSRHATYYTQDHKER	not soluble
MAELTETSPETPETTEAIRAVEAFLNALQNEDFDTVDAALGDDLVYENVGFSRIRGGRRTATLLRRMQGRVGFEVKIHRIGADGAAVLTERTDALIIGPLRVQFWVCGVFEVDDGRITLWRDYFDVYDMFKGLLRGLVALVVPSLKATL	soluble
MAELYYEDNRAYSYTQSFLKMFYLIFGQAYSRDYLSIDKYNKLCSNKDTKIHMPKLKIDEETNIVFFSKEEMQQLDNYFKGTNVETAYLLGKYCGLRINECFGLKWDKIDLKNGTITIDRQMQYQNGMIKLVPLKTRNAKRKIYMCSKLKEYFTNLMQQQEKYKTELAELRQQKQTLIKDIQGNTISSLELVNSMPIGRMQTVNAMKYHTRTLKEKYHIDFKYHYLRHTYGTTLATLNTPEHLLCNQMGHSSSSVTHKYYIGISKQGIDELLKNLERV	not soluble
MAEQRSNIMRLPPSGYRLHRFPPLAQPVAVDEEFGLDNQGWQESQVDIQQQLEAGFQQGLQQGHEEGLRQGIEQGKQQGLLDGQKEGFQKGFVSGEQAGKQGFLEAAKPVNDLFQALSRWQSEKEQQQRHMICELVQKVAQQVIRAELTLMPQQILALVDETLSAMPGKAETVTVHLNPQDLERITHINADLPKSWKLVANNELPIGGCQLVTDDAEADASCDSRLEACMDNVKQHLLDEVSIPQVESENELEHHHHHH	soluble
MAESLLIKDIAIVTENEVIKNGYVGINDGKISTVSTERPKEPYSKEIQAPADSVLLPGMIDIHIHGGYGADTMDASFSTLDIMSSRLPEEGTTSFLATTITQEHGNISQALVNAREWKAAEESSLLGAELLGIHLEGPFVSPKRAGAQPKEWIRPSDVELFKKWQQEAGGLIKIVTLAPEEDQHFELIRHLKDESIIASMGHTDADSALLSDAAKAGASHMTHLYNAMSPFHHREPGVIGTALAHDGFVTELIADGIHSHPLAAKLAFLAKGSSKLILITDSMRAKGLKDGVYEFGGQSVTVRGRTALLSDGTLAGSILKMNEGARHMREFTNCSWTDIANITSENAAKQLGIFDRKGSVTVGKDADLVIVSSDCEVILTICRGNIAFISKEADQI	soluble
MAESMQSKPSFEYPKRAAIGSYWSNRNRDEKHFKNLGPASLSSASAGKVMQWMLSHTCNGVPKPKGGYDAFGKIWYAPCNMAESVAQWRASMSNDEAQPAKNRVYWIGHSSQLLCLSNGINILFDPIFSQRASPLSFAGPSRRFPPAATAAQLPPIHIVTVSHNHYDHMDKQSIKAVAARFPDAHFVVPLKLDRFLREWGVPGASITTLDWYEACEVKGVRVGCTPAQHWGKHSAFDDNEVLWCGWCVGWQPGQQQQPASTCEKPTLISFSGIEPSSEALVEAQRTWNRYKKYFFAGDTAYNPDVSTSIYAHFGPMDMAALPIGAYSPRWFMARAHIDPEHAVQIFKDQHIQQAVAVHWGTFELADEPLDEPPQVLRKTLKDASIDENRFQIIPMGKFIEF	soluble
MAETPNQRITEINLNKEMRTSFLDYAMSVIVARALPDVRDGLKPVHRRILYAMNDLGMTSDKAYKKSARIVGEVIGKYHPHGDTAVYFTMVRMAQDFSYRNMLVDGHGNFGSVDGDMAAAMRYTEARMSKISMELLRDINKDTIDYADNYDGSEREPVILPARFPNLLVNGSSGIAVGMATNIPTHHLGEVIDGVLALSHDPEITIRDLMEYIPGPDFPTAGMIMGRSGIRRAYESGRGSITVRGRVDIEEKKNGKETIVITEIPYQVNKARLVERIAELAREKKIDGITSLNDESDRSGMRIVIEVRRDISASVIVNNLFKMTALQTTFGINMLALVDNHPKVLNLKEILYYYLEHQKVVIRRRTEFELRKAEARAHILEGLRIALDNIDAIIKLIRGSKTSDVAKEGLMTQFNLSDKQAQAILDMRLQRLTGLEREKIEEEYQNLVALINDLKAILADDERILEIIREELEEIKVKYADKRRTEILAGDLVSLEDEDLIPEEEVAITLTKRGYIKRLPLSTYRSQRRGGRGIQGMSTHEDDFVEHLVATSTHDTLLFFTNTGKVYRSKGYEVPEYGRTAKGIPIINLLGIESQEQVNAVINLSEFTDDSYLFFTTKHGVVKRTTLSQFAKIRQSGLRAVELRENDELISVQMTDGSKNMIIATKHGQSIYFPEENIRVMGRTAAGVRGIRLREDDEVIGMEVLEDDEKVLVVTEKGYGKQTPASQYPLRNRGGMGVKTVTITEKNGNLVAMKTVTGEEDLMLMTVSGVLIRFEIDTVSQTGRSAMGVKLIRLDEDEKVATVAKVPKEEDEVELEEEIDETLITQVPDESFEDAPGSDIEE	not soluble
MAEVESFSLDHTKVKAPYVRLAGRKALAGGVVEKYDLRLAQPNREALPTGALHTLEHLLAGYLRDHLPGVIDLSPMGCRTGFYLVVEGPVGEEKVLEAFAQALKDVLAHEGEVPGASFRECGNYRDHDLPGAKAWAEKVLKAGLRVQATVPLEAR	soluble
MAEVMSQTLEDAMRRNPHLRKYVEEFRRKYGKIPEFHVQLSRDMKEIPYPNIIYPVGDPIFIHIYGDPNTEKQYIVIEPRIETKEEEEKYKLIRDRMLELAPNKDIPEEQEEFERFLDSLFEEAVL	not soluble
MAFRVSVRLARDTFCLSDTVEGSVAVDVEGTSHDVAAAAPSAVRVALRAVEEAGKRHAIEHMALVTTVAGPSTAHEEAAAAALRESVNRFTTEAARRHPLLGVPVSTDSTMLVEGAASEHYTYSAGAGAASNPGGVTSETATSPPQRWEAGGHYVYPFALQLPPWLPPSYYYKPSAVKSHMSMRYTVAAFVVCGVEEADVDVVPREFRLQMTVLVPCTPLPAKAWRGSSCTSDGGAEGADKRGTCASAPLLSPVRFLLPAEIPQLLERLPAAQLVDFTVLSALPKRELQQCVERVSISPPFREKLTYHIYKYSLVLRGLLRNKPYTAVDVCITYDSGAAVLLCGRQQSVVRGGVALGLAAPHGNDSGDAPAALSSAGSGVAPGGLTVMGTVVGGEYSRAPRIHTDNHGMAPSPLGKRARGRQSPAAADPHTGDSANSLWRDGEGAGGSQLSALSACTEPAINGALRLHVRVRTGSVAVSKVRVKLLERVRCTSAPATQPNDVYTLATYTHSEKIHANTSTEFPIELALPKQFRHIAADNEKYPPPAGITTAAVHTTTWLQITFPSLHAVSEAQLAENVVLVGEDVDLTDTVPFLPCACPVRTL	not soluble
MAGDIILRVEDLEKRFGGIVALDKVNLEIERGKVTLLIGPNGSGKTTLVNVISGFYKPDGGRVLFKGRDITGMSPHEISKLGLVRTFQIPKPFTNLTVLENVLTAADSPGENVYLAGLARRLWLGFEKRAAARAFEILGWVGLDHMWDRRSGELSGGQMKLLEIARAIMKGAEMIIMDEPAAGVNPRLAGSIMERIKYLAREKGITFLIIEHRIGLVKEYVDRVYAMSMGKVIASGKPDEVLNNPVVLESYLGG	soluble
MAGDPMIPVKNDPIDTRLAEMHEELRDLRNFPDSEFVGIIRELGFKCELCARCCTREFNDHVFLLDSDLERVRSIDPDAVTPAPYYEFCDQNGRFYVSGYALKTKPDGSCIFLENKRCRIYESRPSICRVYPHMLHREADETGKVDWRQISGLNEHGSYHSDLDDPACKEIALETRAYEEAYLQQVIGFFEAVKAHFRTNGLKHIQRTYDRKMREFLKGECDLEIFVYCKGGFEKQKLAKESERLEHHHHHH	soluble
MAGDPMKNILIFPFLSISTGHHHVADALQAELESQGLAAEKIDIFSHSYRRLEKLSSVAYLKWIQYFPKTYSGIYRLLACGEFQHDKRYFMYECVFTQQMRHILQEKQPDIAFCTHALPSYLLNRLKPEYPNLTVVNVYTDFFVNQLWGRKNIDYHFVPSTEVKKQLISEGIDQNNIYLTGIPVHQNFEMESADTLQHHPPYTIIITGGSMGVGGILKWVQELSPGGKILYKILCGRNEKLYSYVKSLHHPLIEAIPYLHSKAEMNRLYEQATGIMTKPGGVTISECLQKRLPVFIYHALPGQEEMNLNLLHERKLVTDMRNWDMQKAEEYIAAFFQSNEQMKEYKKHVNGYLGEMSDRKIKDVLKRIIWKQKNTLLKLEHHHHHH	not soluble
